This test deals with T1, bacterially purified His-tagged hemagglutinin (HA)-PKM2 (human, UniProt P14618 1-531).
T1 construct: pyruvate kinase 2 (PKM2), human; also called His-HA-PKM2
As to the kind of experiment: pull-down. Particulars: both partners purified.

T1 sequence (P14618 whole entry): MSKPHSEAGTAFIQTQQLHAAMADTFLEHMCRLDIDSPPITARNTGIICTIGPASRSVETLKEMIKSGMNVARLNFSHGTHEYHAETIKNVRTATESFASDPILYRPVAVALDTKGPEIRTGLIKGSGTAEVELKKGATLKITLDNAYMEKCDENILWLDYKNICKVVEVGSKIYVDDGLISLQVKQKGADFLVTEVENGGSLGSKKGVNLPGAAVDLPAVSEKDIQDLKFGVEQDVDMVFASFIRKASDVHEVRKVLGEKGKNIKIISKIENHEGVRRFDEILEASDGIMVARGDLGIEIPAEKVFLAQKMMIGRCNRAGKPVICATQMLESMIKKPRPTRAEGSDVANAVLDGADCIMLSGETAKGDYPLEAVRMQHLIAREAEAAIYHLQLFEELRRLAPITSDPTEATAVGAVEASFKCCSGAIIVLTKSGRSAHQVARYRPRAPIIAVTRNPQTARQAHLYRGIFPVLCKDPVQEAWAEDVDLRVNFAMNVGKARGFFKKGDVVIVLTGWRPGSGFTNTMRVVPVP

B1: bacterially purified GST-tagged Sp100A (natural protein)
chain: not shown
notes: Sp100A, isoform A of human Sp100; also called GST-Sp100A
For B1, the binding result is “binds”.

Source of the values: article PMC9765618, “PML Body Component Sp100A Is a Cytosolic Responder to IFN and Activator of Antiviral ISGs” (mBio, 2022).
